MFI, saturating concentration and percent of tumor cells labeled data for two molecules are collected here from patent US20100278818A1.

The target of assay [1] is Tn antigen (GalNAc alpha-O-Ser/Thr of a polypeptide chain) at the surface of human tumor cells. Put plainly: flow cytometry, biotinylated IVIG control and SA-PE on EpCam+CD45- ovarian cancer cells from patient ascitis.
For assay [2], the target named is Tn antigen (GalNAc alpha-O-Ser/Thr of a polypeptide chain) at the plasma membrane of murine tumor cell lines. Description: flow cytometry MFI against antibody concentration on TA3HA cells.
The target in assay [3] is Tn antigen (GalNAc alpha-O-Ser/Thr of a polypeptide chain) at the surface of human tumor cells. Description: immunohistochemistry, biotinylated chi-83D4 and avidin-HRP on 3 primary ovarian serous adenocarcinomas.
For assay [4] the target is unchanged. Description: flow cytometry, biotinylated chi-83D4 preincubated with GalNac (1 M), SA-PE, EpCam+CD45- ovarian cancer cells from patient ascitis.
The target is the same in assay [5]. Description: flow cytometry, biotinylated chi-83D4 and SA-PE on EpCam+CD45- ovarian cancer cells from patient ascitis (one representative patient).
For assay [6] the target is unchanged. Description: flow cytometry MFI against antibody concentration on Jurkat cells. Also noted: unit not given here.
The target is the same in assay [7]. Description: flow cytometry MFI against antibody concentration on Shin3 cells. Also noted: unit not given here.

The molecule “Intravenous immunoglobulin (Tegeline, IVIG) (antibody)” yielded an MFI in assay [1] of 1810.

B1: chimeric anti-Tn (chi-83D4) mAb (antibody, human IgG1, kappa, V domains shown)
VH: QVQLQQSDAELVKPGASVKISCKASGYTFTDHAIHWVKQKPEQGLEWIGYFSPGNGDIKYNEKFKGKATLTADKSSSTAYMQLNSLTSEDSAVYFCKRSYGNYDYWGQGTTLTVSS
VL: DILLTQSPAILSVSPGERVSFSCRASQNIGTSIHWYQQRTNGSPRLLIKYASESVSGIPSRFSGSGSGTDFTLSINSVESEDIADYYCQHTNSWPTTFGGGTKLEIKR
Consider B1, for which the saturating concentration in assay [2] came out at 50 mg/mL; in assay [6], 70; in assay [7], 20. Further, the percent of tumor cells labeled in assay [3] was in the range of 70 to 80%. In addition, the MFI in assay [4] is 1830; in assay [5], 4490.
